According to PMC9751120 (2022):
Like-named read-outs stand apart in the source and are kept apart here.

Legend:
Assay in all cases: FP
[1] = target: T1, purified full-length TAp63α (human)
T1 chain: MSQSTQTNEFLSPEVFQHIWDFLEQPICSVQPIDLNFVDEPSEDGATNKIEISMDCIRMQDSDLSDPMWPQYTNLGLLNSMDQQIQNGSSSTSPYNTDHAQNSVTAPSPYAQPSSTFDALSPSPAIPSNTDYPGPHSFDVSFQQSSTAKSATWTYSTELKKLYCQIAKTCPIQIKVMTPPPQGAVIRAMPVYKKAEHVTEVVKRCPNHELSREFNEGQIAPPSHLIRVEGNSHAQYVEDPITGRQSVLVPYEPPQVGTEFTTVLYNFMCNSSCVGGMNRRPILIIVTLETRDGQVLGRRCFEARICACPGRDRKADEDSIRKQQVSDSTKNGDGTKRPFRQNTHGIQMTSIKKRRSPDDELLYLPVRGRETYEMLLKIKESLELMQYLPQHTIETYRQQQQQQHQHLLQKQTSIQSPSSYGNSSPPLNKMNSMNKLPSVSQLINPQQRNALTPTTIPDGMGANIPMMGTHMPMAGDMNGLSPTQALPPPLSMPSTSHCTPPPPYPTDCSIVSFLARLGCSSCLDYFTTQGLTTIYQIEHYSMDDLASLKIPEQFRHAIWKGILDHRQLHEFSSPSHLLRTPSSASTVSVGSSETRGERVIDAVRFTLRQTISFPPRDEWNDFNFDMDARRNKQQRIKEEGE

[2] = target: T2, purified full-length ΔNp63α (human, UniProt Q9H3D4-2 1-586)
T2 chain: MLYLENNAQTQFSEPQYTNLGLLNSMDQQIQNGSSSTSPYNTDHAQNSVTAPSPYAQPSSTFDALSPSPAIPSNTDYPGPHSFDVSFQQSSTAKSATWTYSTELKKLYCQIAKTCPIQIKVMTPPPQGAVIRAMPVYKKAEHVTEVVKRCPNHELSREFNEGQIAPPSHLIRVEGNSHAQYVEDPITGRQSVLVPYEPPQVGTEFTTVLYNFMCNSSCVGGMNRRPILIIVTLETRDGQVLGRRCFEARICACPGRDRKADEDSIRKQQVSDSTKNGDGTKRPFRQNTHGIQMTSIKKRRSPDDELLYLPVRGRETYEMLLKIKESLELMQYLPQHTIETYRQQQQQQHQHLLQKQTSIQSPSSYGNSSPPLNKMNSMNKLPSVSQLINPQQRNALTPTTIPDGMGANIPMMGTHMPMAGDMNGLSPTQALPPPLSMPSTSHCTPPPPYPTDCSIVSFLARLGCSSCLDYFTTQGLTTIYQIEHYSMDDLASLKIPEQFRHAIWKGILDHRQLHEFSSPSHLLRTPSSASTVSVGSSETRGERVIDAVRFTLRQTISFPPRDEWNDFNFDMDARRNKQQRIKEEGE

[3] = target: T1, purified full-length TAp63α
[4] = target: T2, purified full-length ΔNp63α
[5] = target: T1, purified full-length TAp63α
[6] = target: T2, purified full-length ΔNp63α

B1: DARPin A5, Alexa 488 labeled (designed binder)
chain: GSDLGKKLLEAARAGQDDEVRILMANGADVNAQDQYGWTPLHLAAARGHLEIVEVLLKTGADVNAVDKHGNTPLPLAASVGHLEIVEVLLKAGADVNAQDQFGRTPLHLAAMWGHLEIVEVLLKHGADVNAQDKFGKTAFDISIDNGNEDIVEVLQKAAGGC
modifications: Alexa Fluor 488 C5 maleimide on the introduced C-terminal cysteine
B1 gave a Kd [1] of 296 nM and a Kd [2] of 67.9 nM.

B2: DARPin C14, Alexa 488 labeled (designed binder)
chain: GSDLGKKLLEAAQIGQLDEVRILMANGADVNASDTDGLTPLHLAAASGHLEIVEVLLKTGADVNATDKWGDTPLHLAASQGHLEIVEVLLKAGADVNATDFTGNTPLHLAAYIGHLEIVEVLLKHGADVNAQDKFGKTPFDLAIDNGNEDIAEVLQKAAGGC
modifications: Alexa Fluor 488 C5 maleimide on the introduced C-terminal cysteine
B2 showed a Kd [3] of 734 nM and a Kd [4] of 202 nM.

B3: DARPin 8F1, Alexa 488 labeled (designed binder)
chain: GSDLGKKLLEAARAGQDDEVRILMANGADVNAADWLGYTPLHLAAWYGHLEIVEVLLKTGADVNARDAYGITPLHLAAYYGHLEIVEVLLKHGADVNAQDKFGKTPFDLAIDNGNEDIAEVLQKAAGGC
modifications: Alexa Fluor 488 C5 maleimide on the introduced C-terminal cysteine
B3 gave a Kd [5] of 6160 nM and a Kd [6] of 95.6 nM.
